# B1: Nucleolar RNA helicase 2 (Homo sapiens), Q9NR30 (parent)
# chain: MPGKLRSDAGLESDTAMKKGETLRKQTEEKEKKEKPKSDKTEEIAEEEETVFPKAKQVKKKAEPSEVDMNSPKSKKAKKKEEPSQNDISPKTKSLRKKKEPIEKKVVSSKTKKVTKNEEPSEEEIDAPKPKKMKKEKEMNGETREKSPKLKNGFPHPEPDCNPSEAASEESNSEIEQEIPVEQKEGAFSNFPISEETIKLLKGRGVTFLFPIQAKTFHHVYSGKDLIAQARTGTGKTFSFAIPLIEKLHGELQDRKRGRAPQVLVLAPTRELANQVSKDFSDITKKLSVACFYGGTPYGGQFERMRNGIDILVGTPGRIKDHIQNGKLDLTKLKHVVLDEVDQMLDMGFADQVEEILSVAYKKDSEDNPQTLLFSATCPHWVFNVAKKYMKSTYEQVDLIGKKTQKTAITVEHLAIKCHWTQRAAVIGDVIRVYSGHQGRTIIFCETKKEAQELSQNSAIKQDAQSLHGDIPQKQREITLKGFRNGSFGVLVATNVAARGLDIPEVDLVIQSSPPKDVESYIHRSGRTGRAGRTGVCICFYQHKEEYQLVQVEQKAGIKFKRIGVPSATEIIKASSKDAIRLLDSVPPTAISHFKQSAEKLIEEKGAVEALAAALAHISGATSVDQRSLINSNVGFVTMILQCSIEMPNISYAWKELKEQLGEEIDSKVKGMVFLKGKLGVCFDVPTASVTEIQEKWHDSRRWQLSVATEQPELEGPREGYGGFRGQREGSRGFRGQRDGNRRFRGQREGSRGPRGQRSGGGNKSNRSQNKGQKRSFSKAFGQ
# Variants of: B1
# Conditions: with ncap_sars2 N
row,Variant,effect of a mutation on the interaction
1,S375L;A376E,with no effect
2,D339H;E340G,with no effect

# From IntAct's records for PubMed 35107372
